In patent US20110046887A1, “METHOD FOR ASSESSING PATHWAY PRODUCT LEVELS” (priority 2006, published 2011):

Legend:
[1] = oral dosing in healthy men; cited from earlier work
total Te = conditions: overnight after oral KTCZ 1000 mg with DEX 0.75 mg at midnight; reduced from 530±61; cited from earlier work
Pulsatile LH secretion = test: Expected pulsatile LH secretion in KTCZ/DEX paradigm with Te addback; format: in vivo, human
Method: Volunteers (Forty (40) healthy men ages 18-80 years) arrived at a testing facility by 1730 hours and stayed two nights. At 1800-2000 hours, two i.v. catheters were placed in (contralateral) antecubital veins to allow concomitant saline or Te infusion and blood sampling. […] This regimen can reduce the concentration of total Te from 530±61 to 85±13 ng/dL overnight. […] Visits were greater than or equal to two weeks apart. The order of the four visits was prospectively randomized, and interventions were double-blind.
To enforce pulsatile negative feedback, 12 consecutive pulses of Te or saline was given i.v. on top of the basal infusion. […] To monitor LH and Te concentrations, blood samples (1.25 mL) were withdrawn every 10 min for 16 hours beginning at 0800 hours, FIG. 7.
Te was infused at a constant rate of 1.0 mg/24 hours from midnight (MN) until MN. There were 12 superimposed pulses each at a session-defined dose of zero (saline), 167, 333 or 500 μg delivered over 6 min every two hours from MN to 2200 hours. Resultant total (basal+pulsatile) Te infusion rates were equivalent to 1, 3, 5 and 7 mg/24 hours, thus spanning sub-, mid- and high-physiological Te production rates in healthy young men (normal interquartile range 4-6 mg/day) (Veldhuis et al., Physiological Basis of Aging and Geriatrics, 3rd edition, 213-231, Boca Raton, CRC Press (2003); Veldhuis, Reproductive Endocrinology, 4th edition, 622-631, Philadelphia, W.B. Saunders Co., (1999)). Crystalline testosterone was dissolved in 100% ethanol, diluted to less than 0.3% ethanol in normal saline, and microfiltered for i.v. infusion after sterility and pyrogen testing.
Estimates based on data described elsewhere (Zwart et al., J. Clin. Endocrinol. Metab. 82:2062-2069 (1997)) indicate that statistical power can exceed 90% to detect an effect of age that explains 33% or more of the variability in Te feedback sensitivity if 40 subjects are studied. The predicted slope±SD of feedback sensitivity regressed on age is (×10^−3) 1.5±0.25. […] Because an a priori postulate is that age reduces feedback sensitivity, a test of significance can be one-tailed; and because both sensitivity and efficacy can be examined, the experiment-wise critical value is P≦0.025.

[2] = Bayesian deconvolution of 24-hr pituitary-hormone concentration profiles (secretion and elimination parameters); format: in vivo, human; conditions: 24-hr 10-min sampled profile, ACTH, LH young, GH person
Method: The experimentalist requires an automated procedure by which to simultaneously detect pulse times and estimate secretion/kinetic features. […] In each case, discrete blood sampling (i.e., the withdrawal lasting 5-10 sec) was performed every 10 min for 24 hr. [Integrative sampling (continuous withdrawal) yields a time-integrated or flattened version of the impulse, thereby underestimating absolute peak values and overestimating interpulse valleys.] If the set (Y1, Y2, . . . , Yn) denotes observed hormone concentrations, n would be 145 for 10-min sampling over 24 hr. […] One would like to find values (a,b) so that, for a specified probability, e.g., 0.95, one can make the following probability statement:
Assuming that pulse-onset times are given by ℑm={T^1, T^2 . . . , T^m}, Keenan and Veldhuis give a model to estimate secretory dynamics conditional on pulse times (Keenan & Veldhuis, 1998; Keenan et al., 2000; Keenan et al., 1998). The primary components are basal and pulsatile secretion, a flexible secretory-burst shape, random effects on burst mass, biexponential elimination kinetics and combined experimental uncertainty in sample collection, processing and assay. We suppose that M, the amount of hormone secreted in the j^th burst (mass per unit distribution volume), is the sum of a finite amount of minimally available stores, a linear function of hormone accumulation over the preceding interpulse interval, and a random effect allowing for biological variability in individual burst mass:
In the present Bayesian approach, an a priori (prior) probability distribution is placed on the parameter space: Θ×ℑ, where ℑ={ℑN, ℑN-1, . . . , ℑp} in Eq. [16] and Θ denotes the parameter set in Eq. [14]. The prior density on Θ×ℑ is assumed to be a product: π×λ, with a uniform prior on Θ, π(θ)∝ to a Constant. The prior on ℑ is the Akaike Information Criterion (AIC) penalty for the number of pulse times m, λ(ℑm)∝exp(−m). […] Measured data Y=(Y1, Y2, . . . , Yn)′ are then incorporated via a likelihood function (Eq. [15]), resulting in the a posteriori (posterior) probability distribution on Θ×ℑ:
The algorithm of the present paper utilizes a mathematically justified procedure for simulating from the joint (Θ×ℑ) posterior distribution (Eq. [18]). The basic idea is that, for a given hormone concentration profile, one generates an array of (e.g. 100) simulations from the posterior distribution, which allows one then to make probabilistic statements about the parameters of pulse times, secretion and elimination.
total basal secretion as: n×β0, and total pulsatile as the difference. Repeated sampling of (θ,ℑm), and calculation of total pulsatile secretion (for each), produces a probability histogram approximating the posterior distribution for total pulsatile secretion, given an observed concentration profile. […] Specifically, in reference to Eq. [9]
Histograms are based on 100 simulations from the joint posterior distribution.

[3] = injected GnRH, i.v. bolus; cited from earlier work
[4] = 0.05 quantile of posterior distribution
[5] = 0.25 quantile of posterior distribution
[6] = 0.50 quantile of posterior distribution
[7] = 0.75 quantile of posterior distribution

**Q.** Which half-life [1] does the source give for `CC(=O)N1CCN(c2ccc(OCC3COC(Cn4ccnc4)(c4ccc(Cl)cc4Cl)O3)cc2)CC1` (centres unmarked) [KTCZ, ketoconazole] here?
**A.** Its half-life is “six”.

**Q.** What about the “concentration of total Te” value (total Te) of the same compound?
**A.** The value was 85 ± 13 ng/dL.

**Q.** Which results are given for `C[C@]12CC[C@H]3[C@@H](CCC4=CC(=O)CC[C@@]43C)[C@@H]1CC[C@@H]2O` [Te, testosterone]?
**A.** Pulsatile LH secretion (Pulsatile LH secretion; oldest subjects, 1 mg Te addback, free Te decrement 15 ng/dL): 2.0 IU/L/min; Pulsatile LH secretion (Pulsatile LH secretion; oldest subjects, 7 mg Te addback (start of expected increase)): 0.65 IU/L/min; Pulsatile LH secretion (Pulsatile LH secretion; youngest subjects, 1 mg Te addback, free Te decrement 17 ng/dL): 3.5 IU/L/min; Pulsatile LH secretion (Pulsatile LH secretion; youngest subjects, 7 mg Te addback (start of expected increase)): 0.50 IU/L/min

**Q.** For “adrenocorticotropin hormone (SYSMEHFRWGKPVGKKRRPVKVYPNGAEDESAEAFPLEF; Corticotropin; UniProt P01189 138-176, looked up) [ACTH, endogenous pituitary hormone measured in blood of a person]”, which “Slow Half-Life” value [2, 4] is on record?
**A.** Its value is 9 min.

**Q.** And the “Slow Half-Life” value [2, 5]?
**A.** Its value is 11 min.

**Q.** What about the “Slow Half-Life” value [2, 6] of the same compound?
**A.** The value was 15 min.

**Q.** And the “Slow Half-Life” value [2, 7]?
**A.** Its value is 19 min.

**Q.** What about the “Slow Half-Life” value ([2]; 0.95 quantile of posterior distribution) of the same compound?
**A.** Its value is 25 min.

**Q.** What does the source list for gonadotropin-releasing hormone [GnRH]?
**A.** first-phase half-life [3]: 3 to 7 min; second-phase half-life [3]: 35 to 50 min

**Q.** For growth hormone [GH], which “Slow Half-Life” value [2, 4] is on record?
**A.** Its value is 28 min.

**Q.** What about the “Slow Half-Life” value [2, 5] of the same compound?
**A.** The value was 31 min.

**Q.** And the “Slow Half-Life” value [2, 6]?
**A.** The value was 31 min.

**Q.** And the “Slow Half-Life” value [2, 7]?
**A.** The value was 31 min.
